{"source": "patent US20120204282", "experiment_in_all_cases": "cell_activity", "key": {"[1]": {"test_system": "ZFN 22524 (synthetic construct)", "details": "Cel-I assay; as pair 22524/23947; pair also used for in vivo Q344X correction in mouse retina"}, "[2]": {"test_system": "ZFN 23966 (synthetic construct)", "details": "Cel-I assay; as pair 23966/23974"}, "[3]": {"test_system": "ZFN 23950 (synthetic construct)", "details": "Cel-I assay; as pair 23950/22529"}, "[4]": {"test_system": "ZFN 22529 (synthetic construct)", "details": "Cel-I assay; as pair 23950/22529"}, "[5]": {"test_system": "ZFN 23974 (synthetic construct)", "details": "Cel-I assay; as pair 23966/23974"}, "[6]": {"test_system": "ZFN 23947 (synthetic construct)", "details": "Cel-I assay; as pair 22524/23947; pair also used for in vivo Q344X correction in mouse retina"}}}
{"sequence": "CAGTGGGTTCTTGCCGCAGCAGATGGTG (double strand) [RHO exon 5 site for 22524]", "values": [{"measurement": "activity", "setting": "[1]", "value": 11.5, "unit": "% NHEJ"}]}
{"sequence": "GGGGAGACAGGGCAAGGCTGGCAGAGAG (double strand) [RHO intron 1 site for 23966]", "values": [{"measurement": "activity", "setting": "[2]", "value": 9.3, "unit": "% NHEJ"}]}
{"sequence": "GCCAGGTAGTACTGTGGGTACTCGAAGG (double strand) [RHO exon 1 site for 23950]", "values": [{"measurement": "activity", "setting": "[3]", "value": 8.7, "unit": "% NHEJ"}]}
{"sequence": "GAGCCATGGCAGTTCTCCATGCTGGCCG (double strand) [RHO exon 1 site for 22529]", "values": [{"measurement": "activity", "setting": "[4]", "value": 8.7, "unit": "% NHEJ"}]}
{"sequence": "ATGTCCAGGCTGCTGCCTCGGTCCCATT (double strand) [RHO intron 1 site for 23974]", "values": [{"measurement": "activity", "setting": "[5]", "value": 9.3, "unit": "% NHEJ"}]}
{"sequence": "GTGACGATGAGGCCTCTGCTACCGTGTC (double strand) [RHO exon 5 site for 23947]", "values": [{"measurement": "activity", "setting": "[6]", "value": 11.5, "unit": "% NHEJ"}]}
